Interaction score data for eleven molecules are collected here from article PMC10397247.

Where two headings read alike, the source gives them in different places.

Holding throughout (test): two-hybrid library CCmax;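 note: natural log of median RNA to DNA barcode read ratio; higher means stronger binding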
Test [1] addresses T1, P6-AA-12HAA-T.
T1 chain: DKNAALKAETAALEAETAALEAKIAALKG

Test [2] deals with T2, 4H451-AA.
T2 chain: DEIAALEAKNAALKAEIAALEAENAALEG

The target in test [3] is T3, 4H2705-AA.
T3 chain: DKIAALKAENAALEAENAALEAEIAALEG
To be noted: mean of both orientations.

In test [4] the target is T4, 4H510-AA.
T4 chain: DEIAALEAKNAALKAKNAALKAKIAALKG
To be noted: mean of both orientations.

For test [5], the target named is T5, 4H2442-AA.
T5 chain: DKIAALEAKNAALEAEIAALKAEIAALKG
To be noted: mean of both orientations.

For test [6], the target named is T6, 4H3705-AA.
T6 chain: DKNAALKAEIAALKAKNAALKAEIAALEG
The note with it: mean of both orientations.

The target of test [7] is T7, 4H3651-AA.
T7 chain: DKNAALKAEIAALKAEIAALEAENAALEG
The note with it: mean of both orientations.

Test [8] addresses T8, 4H58-AA.
T8 chain: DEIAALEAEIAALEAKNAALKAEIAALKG
To be noted: mean of both orientations.

The target of test [9] is T9, 4H130-AA.
T9 chain: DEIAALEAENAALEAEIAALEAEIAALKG
To be noted: mean of both orientations.

In test [10] the target is T10, 4H140-AA.
T10 chain: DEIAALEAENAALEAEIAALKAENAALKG
To be noted: mean of both orientations.

For test [11], the target named is T11, 4H1446-AA.
T11 chain: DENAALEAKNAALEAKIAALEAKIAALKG
The note with it: mean of both orientations.

Test [12] has as its target T12, 4H2283-AA.
T12 chain: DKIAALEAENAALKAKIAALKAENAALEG
The note with it: mean of both orientations.

For test [13], the target named is T13, 4H1809-AA.
T13 chain: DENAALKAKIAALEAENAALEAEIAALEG
The note with it: mean of both orientations.

Test [14] concerns the target T14, 4H3920-AA.
T14 chain: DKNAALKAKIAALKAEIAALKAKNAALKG
To be noted: mean of both orientations.

The target of test [15] is T15, 4H2248-AA.
T15 chain: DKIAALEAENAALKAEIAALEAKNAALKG
To be noted: mean of both orientations.

The target of test [16] is T16, P12-AA.
T16 chain: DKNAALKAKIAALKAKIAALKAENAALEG
To be noted: mean of both orientations.

The target of test [17] is T17, P5-AA-1HAA-V.
T17 chain: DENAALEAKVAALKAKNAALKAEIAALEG
To be noted: mean of both orientations.

In test [18] the target is T18, AP5-AA.
T18 chain: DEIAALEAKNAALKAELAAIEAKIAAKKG
To be noted: mean of both orientations.

Test [19] concerns the target T19, 4H_APH3.
T19 chain: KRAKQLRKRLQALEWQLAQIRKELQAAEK

Test [20] concerns the target T20, P5-AA-1HGe-R.
T20 chain: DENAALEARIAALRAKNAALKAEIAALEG
To be noted: mean of both orientations.

In test [21] the target is T21, P5-AA-1HAA-S.
T21 chain: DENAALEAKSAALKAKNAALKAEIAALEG
The note with it: mean of both orientations.

Test [22] addresses T22, P5-AA-12HGe-Q.
T22 chain: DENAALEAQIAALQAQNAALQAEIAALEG
To be noted: mean of both orientations.

The target of test [23] is T23, zCON9_A.
T23 chain: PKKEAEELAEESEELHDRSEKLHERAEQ

The target of test [24] is T24, 4H662-AA.
T24 chain: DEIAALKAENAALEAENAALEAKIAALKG
The note with it: mean of both orientations.

For test [25], the target named is T25, 4H2513-AA.
T25 chain: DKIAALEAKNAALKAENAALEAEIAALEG
The note with it: mean of both orientations.

For test [26], the target named is T26, 4H2726-AA.
T26 chain: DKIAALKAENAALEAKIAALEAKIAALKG
The note with it: mean of both orientations.

For test [27], the target named is T27, 4H55-AA.
T27 chain: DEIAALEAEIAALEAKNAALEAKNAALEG
The note with it: mean of both orientations.

In test [28] the target is T28, 4H2536-AA.
T28 chain: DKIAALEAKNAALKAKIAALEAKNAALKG
To be noted: mean of both orientations.

Test [29] concerns the target T29, 4H481-AA.
T29 chain: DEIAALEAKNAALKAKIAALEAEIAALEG
The note with it: mean of both orientations.

In test [30] the target is T30, 4H3493-AA.
T30 chain: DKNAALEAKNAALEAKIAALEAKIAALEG

The target in test [31] is T31, 4H2151-AA.
T31 chain: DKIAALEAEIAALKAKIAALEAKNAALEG
To be noted: mean of both orientations.

For test [32], the target named is T32, O6-AA.
T32 chain: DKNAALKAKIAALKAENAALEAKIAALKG
To be noted: mean of both orientations.

Test [33] concerns the target T33, O4-AA.
T33 chain: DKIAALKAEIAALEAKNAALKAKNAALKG
To be noted: mean of both orientations.

The target of test [34] is T34, O1-AA.
T34 chain: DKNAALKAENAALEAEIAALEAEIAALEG
To be noted: mean of both orientations.

Test [35] concerns the target T35, P6-AA-12HGe-R.
T35 chain: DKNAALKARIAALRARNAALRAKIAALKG
The note with it: mean of both orientations.

Test [36] addresses T36, P6-AA-1HGe-M.
T36 chain: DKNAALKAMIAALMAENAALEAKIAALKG

Test [37] deals with T37, P6-AA-1HAA-E.
T37 chain: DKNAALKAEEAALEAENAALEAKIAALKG
The note with it: mean of both orientations.

In test [38] the target is T38, P6-AA-12HGe-T.
T38 chain: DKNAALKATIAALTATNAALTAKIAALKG
To be noted: mean of both orientations.

The target of test [39] is T39, 4H3915-AA.
T39 chain: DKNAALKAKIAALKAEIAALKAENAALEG
The note with it: mean of both orientations.

Test [40] concerns the target T40, 4H807-AA.
T40 chain: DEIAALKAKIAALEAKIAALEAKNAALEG
To be noted: mean of both orientations.

Test [41] addresses T41, APC6108-AA.
T41 chain: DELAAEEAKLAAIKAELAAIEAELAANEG
To be noted: mean of both orientations.

The target of test [42] is T42, 4H2447-AA.
T42 chain: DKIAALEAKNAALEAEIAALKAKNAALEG
To be noted: mean of both orientations.

DENAALEAKIAALKAKIAALKAEIAALEG [4H1385-AA]: the interaction score in test [1] is 1.61; in [2], -1.11; in test [3], -1.8; in test [4], -1.54.

Consider DENAALEAENAALKAKIAALKAEIAALEG [4H1257-AA], for which the interaction score in [5] is -1.57; in test [6], -1.52; in test [7] it was -1.01; in test [8], -1.21; in test [9], 1.9; in test [10], -1.43. Further, the interaction score in test [11] is 0.0702.

For the molecule DENAALEAEIAALEAKIAALEAKNAALKG [4H1064-AA], the interaction score in [12] was -1.69; in [9], -0.874; in test [13] it was -1.44; in test [14] it was 1.13; in [15] it was -1.34.

As to DKNAALKAEIAALEAENAALEAKIAALKG [4H3606-AA], the interaction score was -0.654 in test [16]; 2.23 in test [17]; 2.26 in [18]; -1.55 in test [19]; 2.23 in test [20]; 1.63 in test [21]. Besides, the interaction score was 1.98 in test [22] and -1.36 in test [23].

For the molecule DENAALEAKIAALKAEIAALEAKIAALKG [4H1350-AA], the interaction score is -1.35 in test [24]; -1.31 in test [25]; -0.0467 in test [26]; 0.115 in test [2] (mean of both orientations); -1.8 in [3]; -1.11 in test [27]. The interaction score in [28] was -0.188; in [29], 0.532; in test [4] it was -1.17.

In turn, DENAALKAEIAALKAENAALKAEIAALKG [4H1626-AA] registered an interaction score in test [30] (mean of both orientations) of -1.45.

Molecule DENAALEAENAALEAEIAALEAEIAALEG [4H1153-AA] came in with an interaction score in test [31] of -1.21.

In the case of DEIAALEAENAALEAKIAALKAENAALEG [4H171-AA], the interaction score in test [32] is -0.729; in test [33], -0.185; in test [34], -1.52.

In the case of DENAALEAKIAALKAKNAALKAEIAALEG [4H1401-AA], the interaction score in test [35] is -1.02; in [16], -1.92; in test [36], 2.24; in test [18], -0.362; in [19], -1.06; in test [37] it was 2.01. Also, the interaction score was 1.98 in test [32], -1.95 in [23], -1.5 in test [31] and 0.16 in test [38].

In the case of DEIAALEAENAALKAKNAALKAEIAALEG [4H249-AA], the interaction score is -1.67 in [30] and -0.705 in test [39].

Take DENAALKAKIAALEAKNAALEAKIAALEG [4H1845-AA]: the interaction score was -1.87 in [5], -1.58 in test [40], -2.14 in test [41] and -1.57 in test [42].
